B1: TEY-AAA: TEY mutated ERK2 that does not contain phosphates in this site (protein)
chain: MAAAAAAGPEMVRGQVFDVGPRYTNLSYIGEGAYGMVCSAYDNLNKVRVAIKKISPFEHQTYCQRTLREIKILLRFRHENIIGINDIIRAPTIEQMKDVYIVQDLMETDLYKLLKTQHLSNDHICYFLYQILRGLKYIHSANVLHRDLKPSNLLLNTTCDLKICDFGLARVADPDHDHTGFLAAAVATRWYRAPEIMLNSKGYTKSIDIWSVGCILAEMLSNRPIFPGKHYLDQLNHILGILGSPSQEDLNCIINLKARNYLLSLPHKNKVPWNRLFPNADSKALDLLDKMLTFNPHKRIEVEQALAHPYLEQYYDPSDEPIAEAPFKFDMELDDLPKEKLKELIFEETARFQPGYRS
modifications: left off: large carriers
B2: AAA-MEK1: GFP-MEK1 with residues 386-8 (TPT) replaced with Ala (protein, UniProt Q02750 1-393, looked up, variant T386A P387A T388A)
Dual specificity …: MPKKKPTPIQLNPAPDGSAVNGTSSAETNLEALQKKLEELELDEQQRKRLEAFLTQKQKVGELKDDDFEKISELGAGNGGVVFKVSHKPSGLVMARKLIHLEIKPAIRNQIIRELQVLHECNSPYIVGFYGAFYSDGEISICMEHMDGGSLDQVLKKAGRIPEQILGKVSIAVIKGLTYLREKHKIMHRDVKPSNILVNSRGEIKLCDFGVSGQLIDSMANSFVGTRSYMSPERLQGTHYSVQSDIWSMGLSLVEMAVGRYPIPPPDAKELELMFGCQVEGDAAETPPRPRTPGRPLSSYGMDSRPPMAIFELLDYIVNEPPPKLPSGVFSLEFQDFVNKCLIKNPAERADLKQLMVHAFIKRSDAEEVDFAGWLCSTIGLNQPSAAAHAAGV
modifications: GFP fusion
notes: GFP-MEK1 with residues 386-8 (TPT) replaced with Ala

How the values were obtained:
Act-GST-ERK2 = molecular target: T1, Act-GST-ERK2 (Rattus norvegicus, UniProt P63086); assay: In vitro kinase assay with active GST-ERK2; type: biochemical; conditions: immunoprecipitated protein as substrate, relative to GFP-ERK2
T1 construct: made in house; host or cells: bacteria co-expressing active MEK1
T1 sequence (P63086 whole entry): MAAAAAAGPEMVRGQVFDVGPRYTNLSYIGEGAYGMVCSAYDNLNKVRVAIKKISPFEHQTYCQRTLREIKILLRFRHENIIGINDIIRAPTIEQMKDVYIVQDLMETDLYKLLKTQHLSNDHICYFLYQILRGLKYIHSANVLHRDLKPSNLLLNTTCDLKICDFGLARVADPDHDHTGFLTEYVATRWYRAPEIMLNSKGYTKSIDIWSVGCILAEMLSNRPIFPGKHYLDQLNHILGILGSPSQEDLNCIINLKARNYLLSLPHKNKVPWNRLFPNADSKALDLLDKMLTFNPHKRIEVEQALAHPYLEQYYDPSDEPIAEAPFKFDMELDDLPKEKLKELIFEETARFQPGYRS
Experimental: (§1) FIGS. 4A-4I are autoradiographs characterizing SPS phosphorylation using an Ab to the phosphorylated SPS domain. FIG. 4A illustrates an elevation of pSPS detection upon stimulation. COS cells were transfected with WT-GFP-ERK2. Twenty-four hr after transfection, the cells were serum-starved for 16 hr and subsequently treated with the general stimulator VOOH (V, 100 μM Na3VO4 and 200 μM H2O2, 15 min), TPA (T, 250 nM, 15 min), EGF (E, 50 ng/ml for 15 min), or left untreated (NT). The GFP-ERK2 was immunoprecipitated with anti GFP Ab, extensively washed, and the IP was then subjected to Western blotting with anti phospho SPS-ERK (αphoSPS-ERK) and anti general ERK (αgen-ERK) Abs. FIG. 4B is a time course of SPS phosphorylation. […] SPS phosphorylation was detected using the anti pSPS Abs, and this was compared to the amount of genral ERKs detected by αgERK. […] SPS-phosphorylation was detected using αpSPS and αgERK Abs. […] The phosphorylation (^32P-ERK2) of ERK and its mutants was detected by autoradiography. […]
Some protein kinases downstream of MEKs that may be involved in the SPS phosphorylation are ERKs themselves (autophosphorylation) as their consensus phosphorylation site includes Ser/Thr followed by a Pro (Yoon and Seger, 2006, Growth Factors, 24, 21-44). […] As expected, ^32P incorporation to GFP-ERK2 was detected mainly when this protein was incubated with Act-ERK2. […]

SPS domain = assay: SPS phosphorylation detected by anti pSPS Ab Western blot; type: cell-based; conditions: COS7 cells, stimulated with VOOH, TPA, EGF or TGFβ, immunoprecipitation and Western blot
Experimental: as §1, with “phosphorylation. COS7 cells overexpressing WT-GFP-ERK2 were serum starved followed by EGF stimulation for the indicated time points. The lysates were then subjected to Western blot analysis as in FIG. 4A.” for “phosphorylation.”
FIG. 9B is an autoradiograph illustrating that stimulation elevates pSPS phosphorylation of 2GFP-SPS construct. […] The total amount of immunoprecipitated 2GFP-SPS was detected with αGFP Ab. […]

CHO cells = assay: Microscopy of MEK1-GFP constructs (subcellular localization); type: cell-based
Experimental: FIGS. 14A-14R are photomicrographs illustrating that the NTS motif regulates MEK1 shuttling into the nucleus. CHO cells overexpressing WT-GFP-MEK1 (WT), AAA-GFP-MEK1 (AAA-MEK) and EPE-GFP-MEK1 (EPE-MEK) were starved for 16 hr and treated with LMB (5 ng/ml, 1 hr; LMB), LMB (5 ng/ml, 1 hr)+TPA (250 nM, 15 min; LMB+TPA) or left un treated (NT). Subsequently the cells were fixed, stained with DAPI and visualized by a fluorescent microscope.
Immunofluorescence Microscopy. Cells were fixed (30 min in 3% paraformaldehyde in PBS or 10 min with ice-cold methanol), followed by 5-min permeabilization with 0.2% Triton X-100 in PBS (23° C.). The fixed cells were sequentially incubated with the appropriate Abs (45 min) followed by rhodamine-conjugated secondary Abs (45 min) and DAPI. Slides were visualized using a fluorescence microscope (Nikon, Japan) at 400× magnifications.
Other proteins that translocate into the nucleus upon stimulation are the MEKs [H. Jaaro, H. Rubinfeld, T. Hanoch, R. Seger, Proc. Natl. Acad. Sci. USA 94, 3742 (1997)]. […] This TPT sequence was also shown to be phosphorylated upon cellular stimulation [S. Matsuda, Y. Gotoh, E. Nishida, J Biol Chem 268, 3277 (Feb. 15, 1993)], and to be involved in protein-protein interaction that can determine subcellular localization [A. Nantel, K. Mohammad-Ali, J. Sherk, B. I. Posner, D. Y. Thomas, J Biol Chem 273, 10475 (Apr. 24, 1998). […]

| Molecule | reduction of phosphorylation (32P incorporation) by Act-ERK2 (Act-GST-ERK2) | SPS phosphorylation upon stimulation (anti pSPS Ab recognition) (SPS domain) | nuclear accumulation after TPA stimulation (CHO cells; LMB 5 ng/ml + TPA 250 nM, 15 min) | nuclear translocation after leptomycin B (CHO cells; LMB 5 ng/ml, 1 hr) |
| --- | --- | --- | --- | --- |
| B1 | ~25% | can still be recognize by the anti phosphoSPS Ab upon stimulation | – | – |
| B2 | – | – | localized in the cytoplasm | abrogated |
